Laboratory results from patent US5037646A, “Processes for the treatment of vascular disease” (Genentech, Inc., priority 1990, dated 1991).
Several values for one entry are separate records, joined by “and”; a condition that tells them apart may be missing. Identical values can stand only once. Like-named read-outs stand apart in the source and are kept apart here.

Tests used:
[1] = In vitro protease amidolytic assay with S-2288 substrate; format: biochemical; settings: S-2288, 23 nM protein, pH 7.4
Description: The activity of des (1-44) t-PA in a protease amidolytic assay was compared to that of natural t-PA using the S-2288 paranitroanilide chromogenic substrate (Helena Labs). The S-2288 paranitroanilide substrate provides a direct measurement of protease amidolytic activity. The kinetic constants for t-PA and des 1-44 t-PA were determined with the S-2288 substrate using an H-P diode array spectrophotometer (HP8451-A). Hydrolysis of the substrate was measured continuously at two substrate concentrations (1.0 mM and 0.1 mM) while the protein concentrations were held constant at 23 nM in a buffer composed of 0.05M Tris-HCl, 0.12M NaCl, 0.01% Tween 80, pH 7.4. Using the differential form of the Michaelis-Menten equation and a non-linear regression the Km and Vmax were calculated from the curves of the progress of the reaction.

plasminogen = experiment: In vitro plasminogen activation, two-stage assay with plasmin specific substrate S-2251; format: biochemical
Description: The ability of t-PA to activate plasminogen can be measured in an in vitro assay by preincubating t-PA and plasminogen and then adding the plasmin specific substrate H-D-valyl-H-leucyl-H-lysine-p-nitronilide (S-2251). The maximum rate of this reaction is observed in the presence of fibrin(ogen) or fragments of fibrin(ogen) which act as stimulators of the reaction.
The plasmin specific substrate S-2251 was used in a two-stage assay to measure the ability of the sample to activate plasminogen. Fibrin clots were made by incubating the sample with 0.02 ml of a 20 mg/ml fibrinogen solution with 1U of thrombin in a total volume of 0.12 ml of 0.05M Tris-HCl, 0.12M NaCl, 0.01% Tween 80, pH 7.4 for 30 min. at 37' C. Alternatively, the thrombin could be omitted and fibrinogen used as the stimulator. Glu-plasminogen solution, 0.03 ml of a 2.1 mg/ml solution, was then added. After 10 min at 37' C., 0.35 ml of 2.86 mM S-2251 in 0.037M Tris, 0.86 NaCl, 0.007% Tween 80, pH 7.4) were added. This mixture was incubated for five minutes then the reaction was stopped by the addition of 0.1 ml of 50% glacial acetic acid. Absorbance at 405 nm was measured. The activity was expressed as the change in absorbance per nanogram per minute in the presence of substrate.
The stimulation is the ratio of the specific activity of the sample containing fibrin and the specific activity of the sample not containing fibrin.

fibrin clot = experiment: In vitro fibrin clot lysis assay with saturating plasminogen; format: biochemical; settings: t-PA = 1.0
Excerpt: In order to further compare the ability of des 1-44 t-PA to activate plasminogen in the presence of fibrin(ogen), it was compared to t-PA in an assay which measures the ability of t-PA and saturating plasminogen to lyse a fibrin clot.

[2] = Pharmacokinetics of I-125 labeled t-PA, i.v. bolus in rabbits; format: in vivo, rabbit; design: B0 / t1/2b / A0 / AUMC × 10^- 6: unit not given here; settings: carrier 1 mg/kg cold rt-PA; for CL (clearance rate): natural t-PA
Description: Comparative pharmacokinetic studies were performed in rabbits. I-125 labeled test t-PA, either wild type or N44 variant, 5 uCi/kg with a specific activity of 5 to 10 uCi/ug, and carrier wild type t-PA, 1.0 mg/kg, were coinjected, serial blood samples were collected, plasma prepared and the TCA (trichloroacetic acid) precipitable counts were determined at each time point. TCA precipitation was used in order to remove any small metabolites which appear at later times due to degradation of t-PA by the liver. The plasma concentration time curve for rt-PA was fit to a biexponential equation C-Aexp(-alphaXt)+Bexp(-betaXt). The curve for the des (1-44) rt-PA was fit to a monoexponential equation C-Aexp(-alphaXt). The clearance (Cl) was calculated by the formula Cl-DOSE/AUC, where AUC is the area under the plasma concentration time curve. […]

[3] = rabbits; cited from earlier work
[4] = monkeys; cited from earlier work
[5] = cited from earlier work
[6] = individual rabbits #A, #C, #E, #G

Substance: natural t-PA: human tissue plasminogen activator, amino acids 1-527, whether obtained from natural or recombinant sources
- kcat [1]: 17.9 s⁻¹
- Stim (stimulation: specific activity with / without) (plasminogen; With Fibrin Clots): 100
- rel (relative activity) (plasminogen; With Fibrin Clots, relative to t-PA): 100%
- Stim (stimulation: specific activity with / without) (plasminogen; With Fibrinogen): 100
- +Fgn rel (relative activity) (plasminogen; With Fibrinogen, relative to t-PA): 100%
- increase of activity in the presence of fibrin (plasminogen; in the presence of fibrin): about 50 fold
- Clot lysis (relative units) (fibrin clot): 1.0 relative units
- AUMC × 10^- 6 ([2]; MEAN): 601.493
- VDSS ([2]; MEAN): 0.213336 L/kg
- t1/2b ([2]; MEAN): 28.868
- A0 ([2]; MEAN, biexponential fit): 275201
- B0 ([2]; MEAN, biexponential fit): 30352.649
- t1/2a ([2]; MEAN, unit from b248, listed as rT-PA): 3.067 min
- t1/2a ([2]; MEAN, unit from b248, listed as rt-PA): about 3.1 minutes
- CL (clearance rate) ([2]; MEAN, listed as rT-PA): 8.357 mL/min/kg
- CL (clearance rate) ([2]; MEAN, listed as rt-PA): about 8.4 ml/min/kg
- A0 [2, 6]: 247990 and 306059 and 255904 and 290852
- AUMC × 10^- 6 [2, 6]: 789.510 and 452.925 and 637.710 and 525.828
- B0 [2, 6]: 30144.320 and 32920.033 and 27005.306 and 31340.936
- CL [2, 6]: 7.063 mL/min/kg and 9.222 mL/min/kg and 8.567 mL/min/kg and 8.577 mL/min/kg
- VDSS [2, 6]: 0.209553 L/kg and 0.197899 L/kg and 0.232427 L/kg and 0.213466 L/kg
- t1/2a [2, 6]: 3.716 min and 2.645 min and 3.334 min and 2.575 min
- t1/2b [2, 6]: 33.236 and 23.987 and 31.782 and 26.467
- nominal half-life [3]: about 2 minutes
- nominal half-life [4]: ~3.5 min
- t1/2b ([5]; beta phase): about 30 minutes
- t1/2a ([5]; dominant alpha phase): about 2.2 minutes
- t1/2a component ([5]; where Co=100): about 95%
- t1/2b component ([5]; where Co=100): about 5%
